Measured values: PMC8025885, “Cryo-EM of kinesin-binding protein: challenges and opportunities from protein-surface interactions” (Acta Crystallographica. Section D, Structural Biology, 2021)

T1: kinesin-binding protein (human, UniProt Q96EK5 1-621)
T1 construct: The 6xHis tag is thrombin-cleavable; also called KBP; KBP-full; source: E. coli Rosetta2, purified (IMAC, SEC)
T1 sequence (looked up): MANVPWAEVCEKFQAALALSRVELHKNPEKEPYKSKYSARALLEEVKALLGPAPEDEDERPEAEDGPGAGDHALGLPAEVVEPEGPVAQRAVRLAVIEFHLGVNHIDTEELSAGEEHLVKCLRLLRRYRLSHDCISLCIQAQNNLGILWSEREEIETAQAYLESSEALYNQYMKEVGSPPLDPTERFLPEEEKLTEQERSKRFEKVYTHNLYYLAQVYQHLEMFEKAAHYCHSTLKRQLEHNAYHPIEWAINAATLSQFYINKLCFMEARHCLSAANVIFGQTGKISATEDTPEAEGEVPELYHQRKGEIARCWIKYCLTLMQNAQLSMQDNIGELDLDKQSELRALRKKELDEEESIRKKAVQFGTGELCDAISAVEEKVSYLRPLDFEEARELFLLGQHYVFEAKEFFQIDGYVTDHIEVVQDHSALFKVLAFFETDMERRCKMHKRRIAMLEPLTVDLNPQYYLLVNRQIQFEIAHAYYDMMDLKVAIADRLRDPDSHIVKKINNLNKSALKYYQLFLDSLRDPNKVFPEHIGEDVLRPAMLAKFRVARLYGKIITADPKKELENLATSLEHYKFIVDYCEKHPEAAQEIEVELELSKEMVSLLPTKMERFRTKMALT


What was measured:
[1] = target: T1, kinesin-binding protein; test: pull-down; complex purified via IMAC using the 6xHis tag on the kinesin construct after incubation with a tenfold excess of KBP; SDS-PAGE of the purified complex; conditions: both partners purified
[2] = target: T1, kinesin-binding protein; test: cryo-EM structure; rigid KBP-full–KIF15_MD6S subset of particles from GO-coated holey gold grids; 6.9 Å reconstruction; conditions: both partners purified

binding result [1] | binding result [2] | Binder
binds |  | human KIF1A motor domain and neck linker construct (domain or fragment, UniProt Q12756 1-362, looked up, kinesin-3 KIF1A, human, motor domain and neck linker, residues 1-362; The HaloTag is TEV protease-cleavable; the printed size of the motor domain (about 40 kDa); source: E. coli BL21-Gold (DE3), purified (IMAC, SEC); not shown: His6, C-terminal, kept) MAGASVKVAVRVRPFNSREMSRDSKCIIQMSGSTTTIVNPKQPKETPKSFSFDYSYWSHTSPEDINYASQKQVYRDIGEEMLQHAFEGYNVCIFAYGQTGAGKSYTMMGKQEKDQQGIIPQLCEDLFSRINDTTNDNMSYSVEVSYMEIYCERVRDLLNPKNKGNLRVREHPLLGPYVEDLSKLAVTSYNDIQDLMDSGNKARTVAATNMNETSSRSHAVFNIIFTQKRHDAETNITTEKVSKISLVDLAGSERADSTGAKGTRLKEGANINKSLTTLGKVISALAEMDSGPNKNKKKKKTDFIPYRDSVLTWLLRENLGGNSRTAMVAALSPADINYDETLSTLRYADRAKQIRCNAVINE
 | binds | cysteine-light human KIF15 motor domain and neck linker construct (domain or fragment, UniProt Q9NS87 1-375, looked up, kinesin-12 KIF15, human, motor domain and neck linker, residues 1-375, six of eight cysteines mutated to serine and two cysteines introduced; also called KIF15_MD6S; source: pET-21a vector, expressed and purified as described previously (Rosenfeld et al., 2005); not shown: His6, C-terminal, kept) MAPGSKTELRSVTNGQSNQPSNEGDAIKVFVRIRPPAERSGSADGEQNLSLSVLSSTSLRLHSNPEPKTFTFDHVADVDTTQESVFATVAKSIVESCMSGYNGTIFAYGQTGSGKTFTMMGPSESDNFSHNLRGVIPRSFEYLFSLIDREKEKAGAGKSFLSKCSFIEIYNEQIYDLLDSASAGLYLREHIKKGVFVVGAVEQVVTSAAEAYQVLSGGWRNRRVASTSMNRESSRSHAVFTITIESMEKCNEIVNIRTSLLNLVDLAGSERQKDTHAEGMRLKEAGNINRSLSSLGQVITALVDVGNGKQRHVSYRDSKLTFLLRDSLGGNAKTAIIANVHPGSRSFGETLSTLNFAQRAKLIKNKAVVNEDTQC
